Experimental findings from patent US20250277029A1 (Amgen, published 2025) are described below.

The target of experiment [1] is T1, GFP-fused huCB1 in styrene maleic acid lipoparticles (CB1-SMALP-GFP) (human, UniProt P21554 1-472).
T1 construct: Prepared as described in Luna V. et al. 2018; also called huCB1-GFP-SMALP; GFP-tagged huCB1-SMALP; not shown: GFP fused to huCB1
Description: flow cytometry, yeast-displayed Fab, 2.5 nM CB1-SMALP-GFP, after background subtraction. On the technique in general: A flow cytometer gives signals particle by particle.

The target in a further experiment is T2, huCB1 nanodisc (CB1-ND) (human, UniProt P21554 99-414).
T2 construct: The His-tagged CB1 is embedded in a POPC lipid nanodisc with MSP1D1 scaffold protein (molar ratio 480:8:1); also called huCB1-ND; #CB1-008
Kind of experiment: flow cytometry, yeast-displayed Fab, 0.2 nM CB1-ND, after background subtraction.

The target in experiment [2] is empty nanodisc (Empty ND). Kind of experiment: flow cytometry, yeast-displayed Fab, 50 nM Empty ND, after background subtraction.
Experiment [3] concerns the target T3, human cannabinoid receptor type 2 (CB2) (human, UniProt P34972 1-360).
T3 construct: also called huCB2; full length hu CB2
Kind of experiment: binding to huCB2, fold over mock (method not described).

For experiment [4], the target named is T4, His-tagged huCB1-ND (human CB1 in nanodisc) (human).
T4 construct: CB1 construct of Cell 167(3) (2016) 750-762 expressed in Sf9 cells; POPC:MSP1D1:CB1 480:8:1; also called CB1-nanodisc; huCB1-Nanodisc; not shown: histidine purification tag
Kind of experiment: flow cytometry, yeast-displayed IgG, binding/display ratio.

Experiment [5] has as its target T5, empty-ND (nanodisc without CB1).
T5 construct: its only protein is the nanodisc scaffold; also called Empty Nanodisc
The experiment is described as above.

For experiment [6], the target named is T6, GFP-fused huCB1-SMALP (human CB1 in styrene maleic acid lipoparticles) (human, UniProt P21554 1-472).
T6 construct: Prepared as in Luna V. et al. 2018; also called huCB1-GFP-SMALP; wtCB1-SMALP; not shown: GFP fusion
Kind of experiment: flow cytometry, yeast-displayed IgG, GFP MFI.

The target of experiment [7] is T7, mouse CB1 (mouse, UniProt P47746 1-473).
T7 construct: also called muCB1; murine CB1
Description: binding to muCB1, fold over mock (method not described).

Experiment [8] deals with T3, human cannabinoid receptor type 2 (CB2). Kind of experiment: fold over mock (Table 14).
Experiment [9] deals with T7, mouse CB1. Description: fold over mock (Table 14).

T7 sequence (P47746 whole entry): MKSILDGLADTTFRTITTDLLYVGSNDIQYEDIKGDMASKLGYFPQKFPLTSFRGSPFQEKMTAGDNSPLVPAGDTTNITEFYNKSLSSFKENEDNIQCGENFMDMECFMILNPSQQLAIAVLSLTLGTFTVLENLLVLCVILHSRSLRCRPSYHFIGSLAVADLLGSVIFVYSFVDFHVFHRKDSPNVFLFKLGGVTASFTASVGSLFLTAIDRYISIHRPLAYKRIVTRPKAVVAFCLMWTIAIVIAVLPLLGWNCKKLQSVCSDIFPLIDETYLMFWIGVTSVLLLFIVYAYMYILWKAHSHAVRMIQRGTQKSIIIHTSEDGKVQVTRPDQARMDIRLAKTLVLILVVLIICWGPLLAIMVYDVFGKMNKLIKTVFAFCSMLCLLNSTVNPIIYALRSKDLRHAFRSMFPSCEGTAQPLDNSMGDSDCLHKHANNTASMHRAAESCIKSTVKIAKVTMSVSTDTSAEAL
T2 sequence (P21554 99-414 limits assumed): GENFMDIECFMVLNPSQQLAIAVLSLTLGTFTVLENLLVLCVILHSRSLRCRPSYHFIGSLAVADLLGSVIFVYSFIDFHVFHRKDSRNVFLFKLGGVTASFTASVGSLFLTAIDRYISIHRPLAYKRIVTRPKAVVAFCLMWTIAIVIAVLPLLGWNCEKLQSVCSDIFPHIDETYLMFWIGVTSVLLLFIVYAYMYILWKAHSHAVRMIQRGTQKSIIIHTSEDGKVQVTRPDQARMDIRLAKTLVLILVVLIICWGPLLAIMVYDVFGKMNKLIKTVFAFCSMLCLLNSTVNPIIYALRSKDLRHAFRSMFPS
T4 sequence (P21554 99-414): as the sequence (P21554 99-414 limits assumed) above
Chain of empty nanodisc (Empty ND) (P02647 79-267): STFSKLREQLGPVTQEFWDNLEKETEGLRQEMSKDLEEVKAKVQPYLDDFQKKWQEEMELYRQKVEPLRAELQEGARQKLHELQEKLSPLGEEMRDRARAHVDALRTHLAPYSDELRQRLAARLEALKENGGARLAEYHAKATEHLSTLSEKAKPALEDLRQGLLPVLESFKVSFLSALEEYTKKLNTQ
T3 sequence (P34972 whole entry): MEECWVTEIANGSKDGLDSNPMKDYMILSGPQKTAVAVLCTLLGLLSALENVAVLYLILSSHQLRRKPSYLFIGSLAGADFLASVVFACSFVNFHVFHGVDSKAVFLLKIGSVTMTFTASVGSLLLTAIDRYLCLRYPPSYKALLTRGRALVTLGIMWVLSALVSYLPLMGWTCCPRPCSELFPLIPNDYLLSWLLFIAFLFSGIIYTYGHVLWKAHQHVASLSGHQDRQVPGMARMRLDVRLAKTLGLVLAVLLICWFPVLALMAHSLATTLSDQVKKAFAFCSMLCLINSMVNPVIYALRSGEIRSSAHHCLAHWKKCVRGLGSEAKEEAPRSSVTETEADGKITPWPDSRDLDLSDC
T6 sequence (P21554 whole entry, the tested form may be a part): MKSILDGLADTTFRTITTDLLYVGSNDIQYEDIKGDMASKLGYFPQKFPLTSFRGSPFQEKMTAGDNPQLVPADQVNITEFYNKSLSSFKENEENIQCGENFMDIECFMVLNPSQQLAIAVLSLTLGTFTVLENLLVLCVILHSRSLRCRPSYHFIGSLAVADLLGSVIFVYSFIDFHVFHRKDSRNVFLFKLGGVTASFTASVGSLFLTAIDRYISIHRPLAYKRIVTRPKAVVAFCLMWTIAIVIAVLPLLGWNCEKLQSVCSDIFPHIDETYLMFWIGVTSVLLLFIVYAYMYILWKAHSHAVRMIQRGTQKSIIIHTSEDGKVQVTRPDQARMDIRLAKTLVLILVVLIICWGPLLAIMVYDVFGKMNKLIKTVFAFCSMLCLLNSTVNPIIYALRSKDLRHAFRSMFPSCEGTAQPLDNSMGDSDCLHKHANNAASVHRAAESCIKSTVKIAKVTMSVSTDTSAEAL
T1 sequence (P21554 whole entry, the tested form may be a part): as above

B1: LIBC680800-1 (yeast-displayed Fab) (Fab, V domains shown)
VH: QVQLQESGPGLVKPSQTLSLTCTVSGGSIRRGGDYWAWIRQHPGKGLEWIGHIYQTGSTNYNPRFKGRATISVNTYKNQFSLKLSSVTAADTAVYYCARNYDTLTGYSYYYYGMDVWGQGTTVTVSS
VL: DIQMTQSPSSLSASVGDRVTITCRASQSISSYLNWYQQKPGKAPKLLIYSARALSSGVPSRFSGSGSGTDFTLTISSLQPEDFATYYCQQYRKFPLTFGGGTKVEIKR
On to B1, for which the “Relative binding fold change compared to LIBC528116 (Fab)” value (shortened to “Relative binding fold change”) in [1] is 1.76 fold; in the experiment with huCB1 nanodisc (CB1-ND), 2.52 fold; in [2] it was 0.78 fold.

B2: LIBC527814-1 (antibody, IgG1, V domains shown)
VH: QVQLQESGPGLVKPSQTLSLTCTVSGGSIRRGGDYWGWIRQHPGKGLEWIGHVYQTGSTKYNPSFKDRATISVNTYKNQFSLKLSSVTAADTAVYYCARNYDTLTGYSYYYYGMDVWGQGTTVTVSS
VL: DIQMTQSPSTLSASVGDRVTITCRASQSISNYLNWYQQKPGKAPKLLIYAASSLHSGVPSRFSGSGSGTDFTLTISSLQPEDFASYYCQQYQSYPLTFGQGTKVEIKR
Turning to B2, the Fold over mock was found to be 0.9 fold in [3] and 1.2 fold with mouse CB1 [7]. Besides, in [4], the “0.200 nM huCB1-Nanodisc binding (relative to 10D10N35Y)” value is 6.49 fold. The “50.0 nM Empty Nanodisc binding (relative to 10D10N35Y)” value in [5] amounted to 0.61 fold. For the same molecule, the “100 nM huCB1-GFP-SMALP binding (normalized to 10D10N35Y)” value in [6] was found to be 6.44 fold. Further, the binding result (in experiment [8]; in the experiment with mouse CB1 [9]) was “no binding” in each case.

B3: LIBC680562-1 (yeast-displayed Fab) (Fab, V domains shown)
VH: QVQLQESGPGLVKPSQTLSLTCTVSGGSIRRGGDYWAWIRQHPGKGLEWIGHIYQTGSTNYNPRFKGRATISVNTYKNQFSLKLSSVTAADTAVYYCARNYDTLTGYSYYYYGMDVWGQGTTVTVSS
VL: DIQMTQSPSSLSASVGDRVTITCRASQSISSYLNWYQQKPGKAPKLLIYSARRLSSGVPSRFSGSGSGTDFTLTISSLQPEDFATYYCQQYAKSPITFGGGTKVEIKR
With B3, the “Relative binding fold change” value stood at 1.94 fold in [1], 3.34 fold with huCB1 nanodisc (CB1-ND) and 0.68 fold in experiment [2].

B4: LIBC527997-1 (antibody, IgG1, V domains shown)
VH: QVQLQESGPGLVKPSQTLSLTCTVSGGSIRRGGDYWAWIRQHPGKGLEWIGHIYQTGSTNYNPRFKGRATISVNTYKNQFSLKLSSVTAADTAVYYCARNYDTLTGYSYYYYGMDVWGQGTTVTVSS
VL: DIQMTQSPSSLSASVGDRVTITCRASQSISNYLNWYQQKPGKAPKLLIYAASSLHSGVPSRFSGSGSGTDFTLTISSLQPEDFASYYCQQYQSYPLTFGQGTKVEIKR
As for B4, the Fold over mock in [3] stood at 0.8 fold; with mouse CB1 [7], 1 fold. For the same molecule, in experiment [4], the “0.200 nM huCB1-Nanodisc binding (relative to 10D10N35Y)” value came to 6.38 fold. In addition, the “50.0 nM Empty Nanodisc binding (relative to 10D10N35Y)” value in [5] was found to be 0.44 fold. The “100 nM huCB1-GFP-SMALP binding (normalized to 10D10N35Y)” value in experiment [6] turned out to be 6.63 fold. The binding result (in [8]; with mouse CB1 [9]) was “no binding” each time.

B5: LIBC680773-1 (yeast-displayed Fab) (Fab, V domains shown)
VH: QVQLQESGPGLVKPSQTLSLTCTVSGGSIRRGGDYWAWIRQHPGKGLEWIGHVYYTGSTNYNPRFKDRATISVNTYKNQFSLKLSSVTAADTAVYYCARNYDTVTGYSYYYYGMDVWGQGTTVTVSS
VL: DIQMTQSPSSLSASVGDRVTITCRASQSISSYLNWYQQKPGKAPKLLIYKARLLSSGVPSRFSGSGSGTDFTLTISSLQPEDFATYYCQQYSRLPLTFGGGTKVEIKR
For the molecule B5, the entries for the “Relative binding fold change” value (in experiment [1]; with huCB1 nanodisc (CB1-ND); in [2]) were 1.9 fold, 2.4 fold and 0.75 fold, respectively.

B6: LIBC680812-1 (yeast-displayed Fab) (Fab, V domains shown)
VH: QVQLQESGPGLVKPSQTLSLTCTVSGGSIRRGGDYWGWIRQHPGKGLEWIGHVYQTGSTKYNPSFKDRATISVNTYKNQFSLKLSSVTAADTAVYYCARNYDTLTGYSYYYYGMDVWGQGTTVTVSS
VL: DIQMTQSPSSLSASVGDRVTITCRASQSISSYLNWYQQKPGKAPKLLIYSARRLSSGVPSRFSGSGSGTDFTLTISSLQPEDFATYYCQQYRSYPITFGGGTKVEIKR
Take B6: the entries for the “Relative binding fold change” value (in [1]; in the experiment with huCB1 nanodisc (CB1-ND); in experiment [2]) were 1.71 fold, 2.23 fold and 0.74 fold, respectively.

B7: LIBC681594-1 (yeast-displayed Fab) (Fab, V domains shown)
VH: QVQLQESGPGLVKPSQTLSLTCTVSGGSIRRGGDYWAWIRQHPGKGLEWIGHIYQTGSTNYNPRFKGRATISVNTYKNQFSLKLSSVTAADTAVYYCARNYDTLTGYSYYYYGMDVWGQGTTVTVSS
VL: DIQMTQSPSSLSASVGDRVTITCRASQSISSYLNWYQQKPGKAPKLLIYKARKLSSGVPSRFSGSGSGTDFTLTISSLQPEDFATYYCQQFGSMPLTFGGGTKVEIKR
On to B7, for which the “Relative binding fold change” value in experiment [1] was determined as 2.57 fold; in the experiment with huCB1 nanodisc (CB1-ND), 3.56 fold; in experiment [2], 0.83 fold.

B8: LIBC681593-1 (yeast-displayed Fab) (Fab, V domains shown)
VH: QVQLQESGPGLVKPSQTLSLTCTVSGGSIRRGGDYWAWIRQHPGKGLEWIGHIYQTGSTNYNPRFKGRATISVNTYKNQFSLKLSSVTAADTAVYYCARNYDTLTGYSYYYYGMDVWGQGTTVTVSS
VL: DIQMTQSPSSLSASVGDRVTITCRASQSISSYLNWYQQKPGKAPKLLIYNARRLGSGVPSRFSGSGSGTDFTLTISSLQPEDFATYYCQQYRSSPVTFGGGTKVEIKR
On to B8, for which the “Relative binding fold change” value in [1] came out at 2.37 fold; in experiment [2] it was 0.91 fold.

B9: LIBC681737-1 (yeast-displayed Fab) (Fab, V domains shown)
VH: QVQLQESGPGLVKPSQTLSLTCTVSGGSIRRGGDYWAWIRQHPGKGLEWIGHVYYTGSTNYNPRFKDRATISVNTYKNQFSLKLSSVTAADTAVYYCARNYDTVTGYSYYYYGMDVWGQGTTVTVSS
VL: DIQMTQSPSSLPASVGDRVTITCRASQSISSYLNWYQQKPGKAPKLLIYSARRLASGVPSRFSGSGSGTDFTLTISSLQPEDFATYYCQQYYHPPITFGGGTKVEIKR
notes: Original yeast clone without the LC P12S germline reversion; Monovalent Fab on yeast
For B9, the “Relative binding fold change” value was 1.94 fold in [1], 1.89 fold with huCB1 nanodisc (CB1-ND) and 0.73 fold in experiment [2].

B10: LIBC527919-1 (antibody, IgG1, V domains shown)
VH: QVQLQESGPGLVKPSQTLSLTCTVSGGSIRRGGDYWAWIRQHPGKGLEWIGHVYQTGSTAYNPNFKDRATISVNTYKNQFSLKLSSVTAADTAVYYCARNYDALSGYSYYYYGMDVWGQGTTVTVSS
VL: DIQLTQSPSSLSASVGDRVTITCRASQSIISYLNWYQQKPGKAPKLLIYAASSLRSGVPSRFSGSGSGTDFTLTISSLQPEDFATYYCQQYSNYPLTFGGGTRVEIKR
With B10, the Fold over mock in experiment [3] was found to be 0.9 fold; with mouse CB1 [7] it was 1 fold. For the same molecule, the “0.200 nM huCB1-Nanodisc binding (relative to 10D10N35Y)” value in experiment [4] is 5.22 fold. Besides, the “50.0 nM Empty Nanodisc binding (relative to 10D10N35Y)” value in [5] worked out at 0.64 fold. Further, the “100 nM huCB1-GFP-SMALP binding (normalized to 10D10N35Y)” value in experiment [6] came out at 4.15 fold. The binding result (in experiment [8]; with mouse CB1 [9]) was “no binding” in each case.

B11: LIBC680574-1 (yeast-displayed Fab) (Fab, V domains shown)
VH: QVQLQESGPGLVKPSQTLSLTCTVSGGSIRRGGDYWAWIRQHPGKGLEWIGHVYYTGSTKYNPSFKDRATISVNTYKNQFSLKLSSVTAADTAVYYCARNYDTLTGYSYYYYGMDVWGQGTTVTVSS
VL: DIQMTQSPSSLSASVGDRVTITCRASQSISSYLNWYQQKPGKAPKLLIYGARRLGSGVPSRFSGSGSGTDFTLTISSLQPEDFATYYCQQYSSLPVTFGGGTKVEIKR
For B11, the “Relative binding fold change” value in [1] was determined as 1.72 fold; in experiment [2], 0.72 fold.
